How the values were obtained:
[1] = molecular target: T1, membrane-bound full-length human CD89 on HEK293F cells (human, UniProt P24071 22-287); experiment: FACS HEK293F-huCD89, 10 ug/mL; competitor PE-MIP8a
T1 construct: 2 or transient transfectants; also called membrane human CD89; human FcaRI
Experimental: (§1) Then, 10 µL/tube (i.e., 0.1 × 10⁶ cells) of these cells were incubated with or without 100 µL purified mouse anti-human CD89 antibody at 10 µg/mL (in PBS/BSA/NaN₃) for 30 minutes at 4° C. […] After extensive washing in PBS/BSA/NaN₃, cells were fixed in 2% formaldehyde in PBS/BSA/NaN₃ for 30 minutes at 4° C.

[2] = molecular target: T1, membrane-bound full-length human CD89 …; experiment: FACS HEK293F-huCD89, 10 ug/mL; competitor PE-A3
Experimental: as §1

[3] = molecular target: T1, membrane-bound full-length human CD89 …; experiment: FACS, antibody before serum IgA on HEK293F-huCD89; IgA detected
Experimental: Then, 10 µL/tube (i.e., 0.1 x 10⁶ cells) of these cells were incubated with 50 µL titrated (in PBS/BSA/NaN₃) purified mouse anti-human CD89 antibody/tube for 30 minutes at 4° C. […] After extensive washing in PBS/BSA/NaN₃, 1:200 diluted PE-conjugated streptavidin (Jackson ImmunoResearch) was added, and incubated for 30 minutes at 4° C. After extensive washing in PBS/BSA/NaN₃, cells were fixed in 2% formaldehyde in PBS/BSA/NaN₃ for 30 minutes at 4° C.

[4] = molecular target: T1, membrane-bound full-length human CD89 …; experiment: FACS HEK293F-huCD89, 10 ug/mL; competitor PE-A59
Experimental: as §1

[5] = molecular target: T1, membrane-bound full-length human CD89 …; experiment: FACS, antibody before secretory IgA on HEK293F-huCD89; IgA detected
Experimental: Then, 10 µL/tube (i.e., 0.1 x 10⁶ cells) of these cells were incubated with or without 50 µL titrated (in PBS/BSA/NaN₃) purified mouse anti-human CD89 antibody/tube for 30 minutes at 4° C. […] After extensive washing in PBS/BSA/NaN₃, 1:200 diluted PE-conjugated streptavidin (Jackson ImmunoResearch) was added, and incubated for 30 minutes at 4° C. After extensive washing in PBS/BSA/NaN₃, cells were fixed in 4% formaldehyde in PBS/BSA/NaN₃ for 30 minutes at 4° C.

[6] = molecular target: T2, chimeric bovine EC1-Fcgamma2R/human EC2-CD89 on HEK293F cells (bovine/human chimera); experiment: FACS, transiently transfected HEK293F
T2 chain: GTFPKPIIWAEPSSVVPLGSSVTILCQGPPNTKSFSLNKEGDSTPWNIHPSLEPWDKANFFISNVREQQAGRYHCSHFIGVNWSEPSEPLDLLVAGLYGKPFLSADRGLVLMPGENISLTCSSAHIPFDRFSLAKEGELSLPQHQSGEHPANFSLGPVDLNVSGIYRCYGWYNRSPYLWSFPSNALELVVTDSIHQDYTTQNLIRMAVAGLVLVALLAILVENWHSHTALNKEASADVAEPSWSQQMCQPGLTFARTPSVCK
Experimental: (§2) To this end, transient transfected HEK293F cells were put at 10 × 10⁶ cells/mL in ice-chilled phosphate-buffered saline containing 0.1% BSA (Sigma)/0.05% NaN₃ (PBS/BSA/NaN₃) supplemented with 50 µg/mL human IgGs (blocking Fcy receptors; Sigma) for 10 minutes at 4° C. Then, 10 µL/tube (i.e., 0.1 × 10⁶ cells) of these cells were incubated with or without 100 µL purified mouse anti-human CD89 antibody at 10 µg/mL (in PBS/BSA/NaN₃) for 30 minutes at 4° C. […] After extensive washing in PBS/BSA/NaN₃, cells were subsequently incubated with 1:200 diluted PE-conjugated goat anti-mouse IgG Fcy-specific antibodies (Jackson ImmunoResearch) for 30 minutes at 4° C. After extensive washing in PBS/BSA/NaN₃, cells were fixed in 2% formaldehyde in PBS/BSA/NaN₃ for 30 minutes at 4° C.

[7] = molecular target: T3, membrane full-length bovine Fcgamma2R on HEK293F cells (bovine); experiment: FACS, transiently transfected HEK293F
T3 construct: also called bovine Fcy2R
T3 chain: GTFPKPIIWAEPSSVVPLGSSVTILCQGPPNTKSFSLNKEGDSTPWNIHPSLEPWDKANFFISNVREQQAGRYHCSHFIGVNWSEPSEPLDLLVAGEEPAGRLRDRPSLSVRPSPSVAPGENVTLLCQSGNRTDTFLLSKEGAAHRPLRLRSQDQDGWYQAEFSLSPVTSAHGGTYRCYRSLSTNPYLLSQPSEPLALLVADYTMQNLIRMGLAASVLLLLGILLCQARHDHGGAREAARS
Experimental: as §2

[8] = molecular target: T4, chimeric human/cynomolgus monkey CD89-II on HEK293F cells (human/cynomolgus chimera, UniProt P24071 22-287); experiment: FACS, 10 µg/mL, transiently transfected HEK293F
T4 construct: also called dIle47 - Ile71 human EC1-CD89; II (47-71)
T4 chain: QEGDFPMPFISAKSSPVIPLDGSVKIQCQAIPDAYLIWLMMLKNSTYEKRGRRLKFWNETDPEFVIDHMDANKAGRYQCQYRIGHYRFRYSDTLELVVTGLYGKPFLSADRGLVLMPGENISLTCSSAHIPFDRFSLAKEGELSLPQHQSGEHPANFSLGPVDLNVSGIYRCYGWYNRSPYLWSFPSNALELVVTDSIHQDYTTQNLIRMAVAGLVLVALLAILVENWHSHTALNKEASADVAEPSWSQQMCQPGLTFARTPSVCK
Experimental: (§3) To this end, transient transfected HEK293F cells were put at 10 × 10⁶ cells/mL in ice-chilled phosphate-buffered saline containing 0.1% BSA (Sigma)/0.05% NaN₃ (PBS/BSA/NaN₃) supplemented with 50 µg/mL human IgGs (blocking FcY receptors; Sigma) for 10 minutes at 4° C. Then, 10 µL/tube (i.e., 0.1 × 10⁶ cells) of these cells were incubated with or without 100 µL purified mouse anti-human CD89 antibody at 10 µg/mL (in PBS/BSA/NaN₃) for 30 minutes at 4° C. […] After extensive washing in PBS/BSA/NaN₃, cells were subsequently incubated with 1:200 diluted PE-conjugated goat anti-mouse IgG Fcy-specific antibodies (Jackson ImmunoResearch) for 30 minutes at 4° C. After extensive washing in PBS/BSA/NaN₃, cells were fixed in 2% formaldehyde in PBS/BSA/NaN₃ for 30 minutes at 4° C.

[9] = molecular target: T5, chimeric human/cynomolgus monkey CD89-IV on HEK293F cells (human/cynomolgus chimera, UniProt P24071 22-287); experiment: FACS, 10 µg/mL, transiently transfected HEK293F
T5 construct: also called dArg97 - Gly121 human EC1-CD89
T5 chain: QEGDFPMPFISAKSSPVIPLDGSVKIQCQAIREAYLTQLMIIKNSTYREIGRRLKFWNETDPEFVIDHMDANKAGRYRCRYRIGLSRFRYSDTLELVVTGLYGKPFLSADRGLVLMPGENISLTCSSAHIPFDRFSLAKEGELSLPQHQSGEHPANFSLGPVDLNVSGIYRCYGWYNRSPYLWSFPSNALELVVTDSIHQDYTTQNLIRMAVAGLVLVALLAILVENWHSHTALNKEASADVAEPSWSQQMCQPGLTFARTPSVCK
Experimental: as §3

[10] = molecular target: T6, recombinant C-terminal polyhistidine-tagged human (extracellular) CD89 (Sino Biological) (human, UniProt P24071 22-227); experiment: ELISA, antibody before serum IgA on coated rhuCD89; IgA detected
T6 construct: extracellular domain; bought protein; also called rhuCD89; soluble monomeric rhuCD89
Experimental: After extensive washing with PBS/0.05% Tween 20, plates were blocked with PBS/0.05% Tween 20/1% BSA (Roche) for 1 hour at RT. Subsequently, plates were incubated with 25 µL titrated (in block buffer) purified mouse anti-human CD89 antibody/well for 30 minutes at RT. […] After extensive washing in PBS/0.05% Tween 20, 1:10,000 diluted HRP-conjugated streptavidin (Jackson ImmunoResearch) was added, and incubated for 1 hour at RT, followed by a ready-to-use solution of TMB substrate (Invitrogen) for colorimetric detection.

[11] = molecular target: T7, chimeric human EC1-CD89/bovine EC2-Fcgamma2R (bovine TM and IC) on HEK293F cells (human/bovine chimera); experiment: FACS, 10 µg/mL, transiently transfected HEK293F
T7 construct: also called human EC1-CD89 (version with bovine transmembrane-intracellular region)
Experimental: as §2

[12] = molecular target: T8, chimeric human EC1-CD89/bovine EC2-Fcgamma2R (human TM and IC) on HEK293F cells (human/bovine chimera); experiment: FACS, 10 µg/mL, transiently transfected HEK293F
T8 construct: also called human EC1-CD89 (version with human transmembrane-intracellular region)
Experimental: as §2

[13] = molecular target: membrane human CD89 on ex vivo primary human neutrophilic granulocytes or monocytic U937 cells (human, UniProt P24071 22-287); experiment: cell-based or functional assay
[14] = molecular target: T1, membrane-bound full-length human CD89 …; experiment: FACS HEK293F-huCD89
Experimental: After extensive washing in PBS/BSA/NaN₃, cells were subsequently incubated with 1:200 diluted PE-conjugated goat anti-human IgG Fcy-specific antibodies (Jackson ImmunoResearch) for 30 minutes at 4° C. After extensive washing in PBS/BSA/NaN₃, cells were fixed in 2% formaldehyde in PBS/BSA/NaN₃ for 30 minutes at 4° C.

B1: CD89/IgA blocking mouse anti-human CD89-specific antibody 10E7 (antibody, V domains shown)
VH: EVQLVESGGGLVQPGGSLKLSCAASGLTFSSYGMSWVRQTPDKRLELVATINGNGDITYYPDSVKGRFTISRDNAKNTLYLQMSSLKSEDTAMYYCARDYDYDYAMDYWGQGTSVTVSS
VL: DIQMTQSTSSLSASLGDSVTISCRASQDIINYLNWYQQKPDGTVKLLIYYTSRLHSGVPSRFSGSGSGTEYSLTVSNLEKEDIATYFCQQGKTLPYTFGGGTKLEIK
notes: biotinylated in the Octet assay; also called mouse 10E7
- % blocking of PE-MIP8a binding [1]: < 25%
- % blocking of PE-A3 binding [2]: < 25%
- IC50 (read off the curve) [3]: ~0.7 µg/mL
- % blocking of PE-A59 binding [4]: < 25%
- IC50 (read off the curve) [5]: ~1 µg/mL
- binding result [6]: no binding (tested: 10 µg/mL)
- binding result [7]: no binding (tested: 10 µg/mL)
- binding result [8]: binds
- binding result [9]: binds
- IC50 (read off the curve) [10]: ~0.06 µg/mL
- binding result [11]: binds
- binding result [12]: binds
- IC50 (read off the bars), binding of granulocytes to plate-bound serum IgA [Donor 2] [13]: ~0.4 µg/mL
- EC50 [14]: 0.637 µg/mL

From patent US20230242646A1 (JJP BIOLOGICS SP Z O O, published 2023)
